In paper PMC4215257, “Geminin Inhibits a Late Step in the Formation of Human Pre-replicative Complexes*” (The Journal of Biological Chemistry, 2014):

T1: FLAG-HsGeminin-His6 (wild type) (Homo sapiens (Human), UniProt O75496)
T1 chain: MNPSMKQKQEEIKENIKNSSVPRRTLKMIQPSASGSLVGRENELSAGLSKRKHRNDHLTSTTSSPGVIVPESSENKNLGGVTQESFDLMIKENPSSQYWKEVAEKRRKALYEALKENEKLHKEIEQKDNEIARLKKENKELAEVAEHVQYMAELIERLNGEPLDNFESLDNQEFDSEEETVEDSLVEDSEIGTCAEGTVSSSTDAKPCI

B1: FLAG-HsGeminin-His6 (wild type) (natural protein, human, UniProt O75496 1-209, looked up)
chain: T1 chain
notes: also called wild-type HsGeminin; wt; source: Sf9, baculovirus; purified (Ni-NTA, then anti-FLAG M2 agarose); also in Sf9 lysate; not shown: FLAG, N-terminal, kept; His6, C-terminal, kept
B2: Myc-HsCdc6 (natural protein, human, UniProt Q99741 1-560, looked up)
chain: MPQTRSQAQATISFPKRKLSRALNKAKNSSDAKLEPTNVQTVTCSPRVKALPLSPRKRLGDDNLCNTPHLPPCSPPKQGKKENGPPHSHTLKGRRLVFDNQLTIKSPSKRELAKVHQNKILSSVRKSQEITTNSEQRCPLKKESACVRLFKQEGTCYQQAKLVLNTAVPDRLPAREREMDVIRNFLREHICGKKAGSLYLSGAPGTGKTACLSRILQDLKKELKGFKTIMLNCMSLRTAQAVFPAIAQEICQEEVSRPAGKDMMRKLEKHMTAEKGPMIVLVLDEMDQLDSKGQDVLYTLFEWPWLSNSHLVLIGIANTLDLTDRILPRLQAREKCKPQLLNFPPYTRNQIVTILQDRLNQVSRDQVLDNAAVQFCARKVSAVSGDVRKALDVCRRAIEIVESDVKSQTILKPLSECKSPSEPLIPKRVGLIHISQVISEVDGNRMTLSQEGAQDSFPLQQKILVCSLMLLIRQLKIKEVTLGKLYEAYSKVCRKQQVAAVDQSECLSLSGLLEARGILGLKRNKETRLTKVFFKIEEKEIEHALKDKALIGNILATGLP
notes: human Cdc6; also called human Cdc6; source: Sf9, baculovirus; purified (anti-c-Myc 9E10 agarose, 9E10 peptide elution); also in Sf9 lysate; not shown: Myc, N-terminal, kept
B3: FLAG-HsCdt1 (natural protein, human, UniProt Q9H211 1-546, looked up)
chain: MEQRRVTDFFARRRPGPPRIAPPKLACRTPSPARPALRAPASATSGSRKRARPPAAPGRDQARPPARRRLRLSVDEVSSPSTPEAPDIPACPSPGQKIKKSTPAAGQPPHLTSAQDQDTISELASCLQRARELGARVRALKASAQDAGESCTPEAEGRPEEPCGEKAPAYQRFHALAQPGLPGLVLPYKYQVLAEMFRSMDTIVGMLHNRSETPTFAKVQRGVQDMMRRRFEECNVGQIKTVYPASYRFRQERSVPTFKDGTRRSDYQLTIEPLLEQEADGAAPQLTASRLLQRRQIFSQKLVEHVKEHHKAFLASLSPAMVVPEDQLTRWHPRFNVDEVPDIEPAALPQPPATEKLTTAQEVLARARNLISPRMEKALSQLALRSAAPSSPGSPRPALPATPPATPPAASPSALKGVSQDLLERIRAKEAQKQLAQMTRCPEQEQRLQRLERLPELARVLRSVFVSERKPALSMEVACARMVGSCCTIMSPGEMEKHLLLLSELLPDWLSLHRIRTDTYVKLDKAADLAHITARLAHQTRAEEGL
notes: human Cdt1; also called human Cdt1; source: Sf9, baculovirus; purified (anti-FLAG M2 agarose, FLAG peptide elution); also in Sf9 lysate; not shown: FLAG, N-terminal, kept

Assays:
FLAG-HsCdt1 = target: B3; test: co-IP; 60 ng purified FLAG-HsCdt1 with 40 ng wild-type or mutant HsGeminin; rabbit anti-human Geminin polyclonal antibodies on protein A/G plus agarose; PBS plus 1 mg/ml BSA, 4 °C, 3 h; washed with PBS plus 0.5 M NaCl; Western blot; details: both partners purified
HsMCM467 complex = target: T2, HsMCM467 complex (human, UniProt P33991 1-863; Q14566 1-821; P33993 1-719); test: recruitment to DNA-coupled magnetic beads; two steps: HsORC or control buffer on pUC19-lamin-B2 DNA beads, then HsMCM467 or HsMCM2–7 with HsCdc6 and/or HsCdt1; 90 mM potassium acetate, 4 mM ATP, 37 °C, 30 min; washed with 100 mM potassium glutamate; Western blot; details: both partners purified
T2 construct: human Mcm4; human Mcm6, untagged; human Mcm7, untagged; source: Sf9 co-infected with baculoviruses for His6-2xFLAG-HsMcm4, HsMcm6 and HsMcm7; purified (Ni-NTA, then FLAG M2 agarose); copies: + +
T2 sequence (P33991 whole entry, chain 1 of 3): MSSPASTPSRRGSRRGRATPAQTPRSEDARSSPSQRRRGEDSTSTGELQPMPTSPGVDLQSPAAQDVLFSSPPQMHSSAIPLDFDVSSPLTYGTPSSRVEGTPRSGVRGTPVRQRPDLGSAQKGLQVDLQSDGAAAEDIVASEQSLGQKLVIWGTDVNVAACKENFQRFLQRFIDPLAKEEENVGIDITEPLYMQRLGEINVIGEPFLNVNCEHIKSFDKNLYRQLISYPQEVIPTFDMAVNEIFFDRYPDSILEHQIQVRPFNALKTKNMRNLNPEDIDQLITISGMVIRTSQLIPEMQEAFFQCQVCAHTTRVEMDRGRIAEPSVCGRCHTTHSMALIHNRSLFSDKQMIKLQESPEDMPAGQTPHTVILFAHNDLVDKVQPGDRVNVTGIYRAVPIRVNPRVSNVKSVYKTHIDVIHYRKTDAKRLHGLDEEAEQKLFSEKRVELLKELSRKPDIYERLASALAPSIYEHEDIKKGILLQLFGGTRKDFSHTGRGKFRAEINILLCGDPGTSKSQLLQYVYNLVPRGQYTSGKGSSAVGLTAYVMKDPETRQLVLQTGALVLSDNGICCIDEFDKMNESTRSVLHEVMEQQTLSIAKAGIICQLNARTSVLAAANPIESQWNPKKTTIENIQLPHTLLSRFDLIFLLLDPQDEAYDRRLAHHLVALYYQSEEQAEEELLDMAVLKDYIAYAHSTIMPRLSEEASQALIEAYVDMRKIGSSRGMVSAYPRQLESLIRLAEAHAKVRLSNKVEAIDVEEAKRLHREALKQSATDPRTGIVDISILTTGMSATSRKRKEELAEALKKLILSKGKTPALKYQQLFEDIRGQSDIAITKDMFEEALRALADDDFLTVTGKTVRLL
T2 sequence (Q14566 whole entry, chain 2 of 3): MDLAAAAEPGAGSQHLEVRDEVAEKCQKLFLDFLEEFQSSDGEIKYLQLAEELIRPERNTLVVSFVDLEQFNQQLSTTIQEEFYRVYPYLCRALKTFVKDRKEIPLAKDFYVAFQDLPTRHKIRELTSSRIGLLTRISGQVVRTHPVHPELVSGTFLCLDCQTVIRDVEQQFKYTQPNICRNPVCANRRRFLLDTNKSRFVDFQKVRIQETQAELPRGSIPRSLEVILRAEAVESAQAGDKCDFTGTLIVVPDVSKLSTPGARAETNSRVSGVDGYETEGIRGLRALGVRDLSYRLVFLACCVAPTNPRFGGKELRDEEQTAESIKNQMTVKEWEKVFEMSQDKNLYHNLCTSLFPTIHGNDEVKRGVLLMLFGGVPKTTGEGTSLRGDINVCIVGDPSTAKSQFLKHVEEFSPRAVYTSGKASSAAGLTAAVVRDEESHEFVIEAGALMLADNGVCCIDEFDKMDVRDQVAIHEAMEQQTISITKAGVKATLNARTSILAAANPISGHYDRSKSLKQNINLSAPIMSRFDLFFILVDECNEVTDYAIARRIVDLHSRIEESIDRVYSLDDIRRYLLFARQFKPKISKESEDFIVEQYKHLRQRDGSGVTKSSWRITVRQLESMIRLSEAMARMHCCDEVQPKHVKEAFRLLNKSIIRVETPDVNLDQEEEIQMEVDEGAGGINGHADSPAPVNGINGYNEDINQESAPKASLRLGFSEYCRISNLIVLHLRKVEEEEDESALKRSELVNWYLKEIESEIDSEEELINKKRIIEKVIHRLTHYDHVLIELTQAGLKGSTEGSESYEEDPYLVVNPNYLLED
T2 sequence (P33993 whole entry, chain 3 of 3): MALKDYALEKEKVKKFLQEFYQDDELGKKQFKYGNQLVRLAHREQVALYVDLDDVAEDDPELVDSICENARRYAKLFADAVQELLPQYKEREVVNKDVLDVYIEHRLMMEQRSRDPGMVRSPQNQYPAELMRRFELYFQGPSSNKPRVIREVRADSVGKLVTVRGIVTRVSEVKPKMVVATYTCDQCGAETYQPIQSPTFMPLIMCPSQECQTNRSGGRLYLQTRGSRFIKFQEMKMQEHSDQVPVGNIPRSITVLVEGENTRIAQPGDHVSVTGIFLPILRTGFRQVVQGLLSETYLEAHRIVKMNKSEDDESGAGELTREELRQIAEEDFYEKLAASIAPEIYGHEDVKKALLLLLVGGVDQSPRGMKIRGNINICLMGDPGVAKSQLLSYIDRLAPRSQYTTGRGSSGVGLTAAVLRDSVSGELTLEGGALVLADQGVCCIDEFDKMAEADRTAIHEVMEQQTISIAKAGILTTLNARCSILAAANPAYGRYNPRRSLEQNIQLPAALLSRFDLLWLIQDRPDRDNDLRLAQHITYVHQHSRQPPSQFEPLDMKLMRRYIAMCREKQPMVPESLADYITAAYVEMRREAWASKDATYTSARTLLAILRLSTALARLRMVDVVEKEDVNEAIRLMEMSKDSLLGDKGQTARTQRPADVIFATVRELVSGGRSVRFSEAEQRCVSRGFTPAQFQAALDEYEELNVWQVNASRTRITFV

HsMCM2–7 complex = target: T3, HsMCM2–7 complex (human | human (endogenous in 293T), UniProt P49736 1-904; P25205 1-808; P33991 1-863; P33992 1-734; Q14566 1-821; P33993 …); test: as above; details: both partners purified
T3 construct: human Mcm2, full length; Mcm3, endogenous in 293T; Mcm4, endogenous in 293T; Mcm5, endogenous in 293T; Mcm6, endogenous in 293T; Mcm7, endogenous in 293T; also called complete heterohexameric human MCM complex; copies: + + + + +

[1] = target: T1, FLAG-HsGeminin-His6 (wild type); test: co-immunoprecipitation of purified proteins (anti-Geminin, 0.5 M NaCl wash, Western blot)

Binder	binding result (FLAG-HsCdt1)	binding result (HsMCM467 complex)	binding result (HsMCM2–7 complex)	binding result [1]
B1	binds			
B2		binds	binds	
B3		binds		binds
